According to patent publication US20140193400A1 (ESBATECH AN ALCON BIOMEDICAL RESEARCH UNIT, published 2014):
Where a chain is given by its changes, count along the chain named. Values joined by “and” are separate entries in the source; they are usually repeats but may differ in a detail not shown here. Identical values can stand only once.

B1: ESBA105 (scFv)
chain: MADIVMTQSPSSLSASVGDRVTLTCTASQSVSNDVVWYQQRPGKAPKLLIYSAFNRYTGVPSRFSGRGYGTDFTLTISSLQPEDVAVYYCQQDYNSPRTFGQGTKLEVKRGGGGSGGGGSGGGGSSGGGSQVQLVQSGAEVKKPGASVKVSCTASGYTFTHYGMNWVRQAPGKGLEWMGWINTYTGEPTYADKFKDRFTFSLETSASTVYMELTSLTSDDTAVYYCARERGDAMDYWGQGTLVTVSS
B2: EP34_max (scFv)
scFv: EIVMTQSPSTLSASLGDRVIITCQSSQSVYGNIWMAWYQQKSGKAPKLLIYQASKLASGVPSRFSGSGSGAEFSLTISSLQPDDFATYYCQGNFNTGDRYAFGQGTKLTVLGGGGGSGGGGSGGGGSGGGGSEVQLVESGGGLVQPGGSLRLSCTASGFTISRSYWICWVRQAPGKGLEWVACIYGDNDITPLYANWAKGRFPVSTDTSKNTVYLQMNSLRAEDTAVYYCARLGYADYAYDLWGQGTLVTVSS
notes: scFv NH2-VL-(GGGGS)4-VH-COOH; also called Epi34max; 791
B3: EP35_max (scFv)
scFv: EIVMTQSPSTLSASVGDRVIITCQASQSISNLLAWYQQKPGKAPKLLIVAASKLASGVPSRFSGSGSGTEFTLTISSLQPDDFATYYCQQGWSHTNVDNTFGQGTKLTVLGGGGGSGGGGSGGGGSGGGGSEVQLVESGGGSVQPGGSLRLSCTASGFSFSVGYWICWVRQAPGKGLEWVACIDAGTSGGTYYATWAKGRFTISKDTSKNTVYLQMNSLRAEDTATYYCARGVSSNGYYFKLWGQGTTVTVSS
notes: scFv NH2-VL-(GGGGS)4-VH-COOH; also called 1089
B4: EP43_min (scFv)
scFv: EIVMTQSPSTLSASVGDRVIITCQASQSISDWLAWYQQKPGKAPKLLIYGASRLASGVPSRFSGSGSGAEFTLTISSLQPDDFATYYCQQGWSDSYVDNLFGQGTKLTVLGGGGGSGGGGSGGGGSGGGGSEVQLVESGGGLVQPGGSLRLSCAASGFSLSSGAMSWVRQAPGKGLEWVSVIISSGATYYASWAKGRFTISRDNSKNTLYLQMNSLRAEDTAVYYCAKGGPDDSNSMGTFDPWGQGTLVTVSS
notes: scFv NH2-VL-(GGGGS)4-VH-COOH; also called 705
B5: EP42_min (scFv)
scFv: EIVMTQSPSTLSASVGDRVIITCQSTESVYKNNYLAWYQQKPGKAPKLLIYDASTLASGVPSRFSGSGSGAEFTLTISSLQPDDFATYYCAGYYRSGFGTANGSFGQGTKLTVLGGGGGSGGGGSGGGGSGGGGSEVQLVESGGGLVQPGGSLRLSCAASGFTFRNDAISWVRQAPGKGLEWVSYISDWGIKYYASWVKGRFTISRDNSKNTLYLQMNSLRAEDTAVYYCAKGAPGAGDNGIWGQGTLVTVSS
notes: scFv NH2-VL-(GGGGS)4-VH-COOH; also called 1076
B6: EP15_max (scFv)
scFv: EIVMTQSPSTLSASVGDRVIITCQASENIYTSLAWYQQKPGKAPKLLIYSASTLASGVPSRFSGSGSGTEFTLTISSLQPDDFATYYCQQGFATSNVENPFGQGTKLTVLGGGGGSGGGGSGGGGSGGGGSEVQLVESGGGSVQPGGSLRLSCTVSGFSLSRYGVSWVRQAPGKGLEWVGAIGETGRAYYANWAKSRSTISRDTSKNTVYLQMNSLRAEDTATYYCARGEEFNNGWGAFNIWGQGTTVTVSS
notes: scFv NH2-VL-(GGGGS)4-VH-COOH; also called 1074
B7: EP1_max (scFv)
scFv: EIVMTQSPSTLSASVGDRVIITCQSTESVYKNNYLAWYQQKPGKAPKLLIYDASTLASGVPSRFSGSGSGTEFTLTISSLQPDDFATYYCAGYYRSGSGTANGSFGQGTKLTVLGGGGGSGGGGSGGGGSGGGGSEVQLVESGGGSVQPGGSLRLSCTVSGIDLSNDAISWVRQAPGKGLEWVAYISDWSIRYYANWAQGRFTISKDTSKNTVYLQMNSLRAEDTATYYCARGAPGAGDNGIWGQGTTVTVSS
notes: scFv NH2-VL-(GGGGS)4-VH-COOH; also called 1072
B8: EP42_max (scFv)
scFv: B7 scFv with S98F, S165R, A184S, S190G, R192K, N196S, A198V, Q199K
notes: scFv NH2-VL-(GGGGS)4-VH-COOH; also called 1077
B9: EP19_max (scFv)
scFv: EIVMTQSPSTLSASVGDRVIITCQASDNIYRGLAWYQQKPGKAPKLLIYDASTLQSGVPSRFSGSGSGTQFTLTISSLQPDDFATYYCLGVYGYSSDDGAAFGQGTKLTVLGGGGGSGGGGSGGGGSGGGGSEVQLVESGGGLVQPGGSLRLSCTVSGFSLNSNEISWVRQAPGKGLEWVGYIGNGGMTHYASWAKGRFTISRDTSKNTVYLQMNSLRAEDTAVYYCASSVEYTDLYYLNIWGQGTLVTVSS
notes: also called 1007; EP19maxmod
B10: EP6_min (scFv)
scFv: EIVMTQSPSTLSASVGDRVIITCQASESIYSGLAWYQQKPGKAPKLLIYQASTLASGVPSRFSGSGSGAEFTLTISSLQPDDFATYYCQQGFGTSNVENPFGQGTKLTVLGGGGGSGGGGSGGGGSGGGGSEVQLVESGGGLVQPGGSLRLSCAASGFSLSRYGVSWVRQAPGKGLEWVSTIGEAGRAYYANWARSRFTISRDNSKNTLYLQMNSLRAEDTAVYYCAKGEVFNNGWGAFNIWGQGTLVTVSS
notes: scFv NH2-VL-(GGGGS)4-VH-COOH; also called 673
B11: EP6_max (scFv)
scFv: B10 scFv with A69T, E70D, T74A, A154T, A155V, S180G, F198S, N204T, L209V, K228R
notes: scFv NH2-VL-(GGGGS)4-VH-COOH; also called 674
B12: EP15_min (scFv)
scFv: EIVMTQSPSTLSASVGDRVIITCQASENIYTSLAWYQQKPGKAPKLLIYSASTLASGVPSRFSGSGSGAEFTLTISSLQPDDFATYYCQQGFATSNVENPFGQGTKLTVLGGGGGSGGGGSGGGGSGGGGSEVQLVESGGGLVQPGGSLRLSCAASGFTFSRYGVSWVRQAPGKGLEWVSAIGETGRAYYANWAKSRFTISRDNSKNTLYLQMNSLRAEDTAVYYCAKGEEFNNGWGAFNIWGQGTLVTVSS
notes: scFv NH2-VL-(GGGGS)4-VH-COOH; also called 1073
B13: EP43_maxmin (scFv)
scFv: B4 scFv with T22K, V58F, S77G, Q79E, D81A
notes: also called 959

Each binder was assayed against T1, recombinant human TNFalpha (human, UniProt P01375 77-233) (assay: cell-based or functional assay).
T1 sequence (P01375 77-233 limits assumed): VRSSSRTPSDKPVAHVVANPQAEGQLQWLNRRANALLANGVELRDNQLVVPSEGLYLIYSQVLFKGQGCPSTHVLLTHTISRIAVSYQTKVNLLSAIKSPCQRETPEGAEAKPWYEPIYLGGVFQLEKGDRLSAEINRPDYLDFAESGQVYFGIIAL

| Binder | EC50, L929 potency assay | IC50, block of cytotoxic activity (human Kym-1 cells, 10 pg/ml TNF) | IC50, block of cytotoxic activity (murine L929 cells, 1000 pg/ml TNF) |
| --- | --- | --- | --- |
| B1 | 6.5 ng/mL | – | – |
| B2 | – | 0.69 ng/mL and 0.63 ng/mL | 1.03 ng/mL and 1.04 ng/mL |

What follows are binders tested against T2, Human TNFa N-his trimers (His-tagged TNF, produced at ESBATech) (human, UniProt P01375 77-233) (assay: SPR (BIAcore T100), His-tagged human TNF captured on NTA chip, scFv as analyte).
T2 construct: Captured as trimers on a Ni-NTA sensor chip by the N-terminal His tags in the Biacore assay of the general methods; also called human TNFα; human TNF alpha; not shown: N-terminal His tag
Description: (§1) For binding affinity measurements at pH5 and pH 7.4 (data not shown), surface Plasmon resonance measurements with BIAcore™-T 100 were employed using a NTA sensor chip and His-tagged TNF (produced at ESBATech). The surface of the NTA sensor chip consists of a carboxymethylated dextran matrix pre-immobilized with nitrilotriacetic acid (NTA) for capture of histidine tagged molecules via Ni2+NTA chelation. Human TNFa N-his trimers (5 nM) are captured by the nickel via their N-terminal his-tags and ESBA105 (analyte) is injected at several concentrations ranging from 30 nM to 0.014 nM in 3 fold serial dilution steps. At the regeneration step, the complex formed by nickel, ligand and analyte is washed away. This allows the use of the same regeneration conditions for different samples. The response signal is generated by surface Plasmon resonance (SPR) technology and measured in resonance units (RU). All the measurements are performed at 25° C. Sensorgrams were generated for each anti-TNF scFv sample after in-line reference cell correction followed by buffer sample subtraction. The apparent dissociation rate constant (kd), the apparent association rate constant (kₐ) and the apparent dissociation equilibrium constant (KD) were calculated using one-to-one Langmuir binding model with BIAcore T100 evaluation Software version 1.1.

T2 sequence (P01375 77-233 limits assumed): as above

| Binder | Kd | koff | kon |
| --- | --- | --- | --- |
| B3 | 0.194 nM | 0.00015 s⁻¹ | 772000 M⁻¹ s⁻¹ |
| B4 | 5540 nM | 0.0298 s⁻¹ | 5380 M⁻¹ s⁻¹ |
| B5 | 58.7 nM | 0.00835 s⁻¹ | 142000 M⁻¹ s⁻¹ |
| B6 | 1.48 nM | 0.00226 s⁻¹ | 1.53e+06 M⁻¹ s⁻¹ |
| B7 | 56.9 nM | 0.00063 s⁻¹ | 11100 M⁻¹ s⁻¹ |
| B8 | 3.46 nM | 0.000419 s⁻¹ | 121000 M⁻¹ s⁻¹ |
| B9 | 2.91 nM | 6.54e-05 s⁻¹ | 22500 M⁻¹ s⁻¹ |
| B2 | 0.0286 nM | 1.68e-05 s⁻¹ | 586000 M⁻¹ s⁻¹ |
| B10 | 106 nM | 0.00494 s⁻¹ | 46700 M⁻¹ s⁻¹ |
| B11 | 0.512 nM | 0.000145 s⁻¹ | 284000 M⁻¹ s⁻¹ |
| B12 | 262 nM | 0.041 s⁻¹ | 157000 M⁻¹ s⁻¹ |

Biological target: T1, recombinant human TNFalpha
Assay: cell-based or functional assay
Remark: another data set of the same source

| Binder | L929* [EC50-E105/EC50-X], potency relative to ESBA105 |
| --- | --- |
| B3 | 5.2 ratio EC50 ESBA105/EC50 X (mass units, ng/ml) |
| B6 | 0.39 ratio EC50 ESBA105/EC50 X (mass units, ng/ml) |
| B9 | 0.6 ratio EC50 ESBA105/EC50 X (mass units, ng/ml) |
| B2 | 10.5 ratio EC50 ESBA105/EC50 X (mass units, ng/ml) |
| B11 | 1.1 ratio EC50 ESBA105/EC50 X (mass units, ng/ml) |

These binders were tested against T2, Human TNFa N-his trimers (His-tagged …) (assay: SPR (BIAcore), His-tagged human TNF captured on NTA chip, scFv as analyte; units taken from paragraph 184).
Description: as §1

| Binder | Kd | koff | kon |
| --- | --- | --- | --- |
| B13 | 36.6 nM | 0.00533 s⁻¹ | 146000 M⁻¹ s⁻¹ |
